Assay results from article PMC5821389, “Fluorescent single-stranded DNA-binding protein from Plasmodium falciparum as a biosensor for single-stranded DNA”.

B1: dT70 (ssDNA)
DNA: TTTTTTTTTTTTTTTTTTTTTTTTTTTTTTTTTTTTTTTTTTTTTTTTTTTTTTTTTTTTTTTTTTTTTT

Columns and labels:
[1] = molecular target: T1, DCC-PfSSB (wild-type PfSSB labeled with IDCC) (Plasmodium falciparum, UniProt Q8I415 77-284); assay: stopped-flow kinetics (koff/kon); high salt (salt inferred); High salt buffer (composition not in material) or low salt buffer (20 mM NaCl); pH and temperature not in material; conditions: protein: recombinant; tags: DCC (diethylaminocoumarin) at C93; chain copies: 4; single strand
[2] = molecular target: T1, DCC-PfSSB (wild-type PfSSB labeled with …); assay: stopped-flow kinetics (koff 0.014 s-1 / kon 199 uM-1s-1); low salt, 20 mM NaCl; koff by wtSSB displacement; High salt buffer (composition not in material) or low salt buffer (20 mM NaCl); pH and temperature not in material; conditions: protein: recombinant; tags: DCC (diethylaminocoumarin) at C93; chain copies: 4; single strand
[3] = molecular target: T2, PfSSB wild type, unlabeled (Plasmodium falciparum, UniProt Q8I415 77-284); assay: competition; high salt, equimolar labeled and unlabeled PfSSB; High salt buffer (composition not in material) or low salt buffer (20 mM NaCl); pH and temperature not in material; conditions: protein: recombinant; chain copies: 4; single strand
[4] = molecular target: T1, DCC-PfSSB (wild-type PfSSB labeled with …); assay: fluorescence titration; high salt, 125 pM DCC-PfSSB; single titration; High salt buffer (composition not in material) or low salt buffer (20 mM NaCl); pH and temperature not in material; conditions: protein: recombinant; tags: DCC (diethylaminocoumarin) at C93; chain copies: 4; single strand
[5] = molecular target: T2, PfSSB wild type, unlabeled; assay: competition; calculated from DCC-PfSSB Kd and 25-fold ratio; high salt; High salt buffer (composition not in material) or low salt buffer (20 mM NaCl); pH and temperature not in material; conditions: protein: recombinant; chain copies: 4; single strand
[6] = molecular target: PfSSB C93A G103C, IDCC labeled (Plasmodium falciparum, UniProt Q8I415 77-284, C93A;G103C); assay: fluorescence change; high salt; High salt buffer (composition not in material) or low salt buffer (20 mM NaCl); pH and temperature not in material; conditions: protein: recombinant; tags: DCC at C103; chain copies: 4; single strand
[7] = molecular target: PfSSB C93A G103C, 6-IATR labeled (Plasmodium falciparum, UniProt Q8I415 77-284, C93A;G103C); assay: as above; conditions: protein: recombinant; tags: tetramethylrhodamine (6-IATR) at C103; chain copies: 4; single strand
[8] = molecular target: T1, DCC-PfSSB (wild-type PfSSB labeled with …); assay: as above; conditions: protein: recombinant; tags: DCC (diethylaminocoumarin) at C93; chain copies: 4; single strand
[9] = molecular target: PfSSB Y156R, IDCC labeled (Plasmodium falciparum, UniProt Q8I415 77-284, Y156R); assay: as above; conditions: protein: recombinant; tags: DCC at C93; chain copies: 4; single strand
[10] = molecular target: PfSSB C93A W166C, 5-IATR labeled (Plasmodium falciparum, UniProt Q8I415 77-284, C93A;W166C); assay: as above; conditions: protein: recombinant; tags: tetramethylrhodamine (5-IATR) at C166; chain copies: 4; single strand
[11] = molecular target: PfSSB wild type, 5-IATR labeled (Plasmodium falciparum, UniProt Q8I415 77-284); assay: as above; conditions: protein: recombinant; tags: tetramethylrhodamine (5-IATR) at C93; chain copies: 4; single strand
[12] = molecular target: PfSSB C93A G102C, IDCC labeled (Plasmodium falciparum, UniProt Q8I415 77-284, C93A;G102C); assay: as above; conditions: protein: recombinant; tags: DCC at C102; chain copies: 4; single strand
[13] = molecular target: T1, DCC-PfSSB (wild-type PfSSB labeled with …); assay: fluorescence titration; high salt, 250 nM protein; two dT35 per tetramer; kon 109 uM-1s-1; High salt buffer (composition not in material) or low salt buffer (20 mM NaCl); pH and temperature not in material; conditions: protein: recombinant; tags: DCC (diethylaminocoumarin) at C93; chain copies: 4; single strand; two copies per tetramer at saturation

Binder	Kd [1] [pM]	Kd [2] [pM]	binding signal [3]	Kd [4] [pM]	Kd [5] [pM]	binding signal [6]	binding signal [7]	binding signal [8]	binding signal [9]	binding signal [10]	binding signal [11]	binding signal [12]	binding result [13]
B1	< 4.6	70	> 25 fold tighter than DCC-PfSSB	1.2 ± 0.5	< 0.2	3.5 ± 0.08 fluorescence ratio +/- dT70	3.5 ± 0.4 fluorescence ratio +/- dT70	20.1 ± 0.1 fluorescence ratio +/- dT70	12.3 ± 0.07 fluorescence ratio +/- dT70	12.8 ± 0.5 fluorescence ratio +/- dT70	9.1 ± 0.2 fluorescence ratio +/- dT70	1.8 ± 0.09 fluorescence ratio +/- dT70	–
TTTTTTTTTTTTTTTTTTTTTTTTTTTTTTTTTTT (ssDNA) [dT35]	–	–	–	–	–	–	–	–	–	–	–	–	binds
